According to article PMC4416025, “Characterization of Hydrogen Metabolism in the Multicellular Green Alga Volvox carteri” (PLoS ONE, 2015):

Columns and labels:
[1] = tested on: T1, C[n+]1ccc(-c2cc[n+](C)cc2)cc1; experiment: H2 evolution assay, gas chromatography; format: biochemical, Volvox carteri; details: electron donor, methyl viologen reduced in situ by sodium dithionite; anaerobic
T1 construct: cDNA-derived, N-terminal 6xHis tag with GGG linker; sense cloning primer encodes tag then MDELDKP; tag removal not mentioned

[2] = tested on: T2, C[n+]1ccc(-c2cc[n+](C)cc2)cc1; experiment: H2 evolution assay, gas chromatography; format: biochemical, Volvox carteri; details: electron donor, methyl viologen reduced in situ by sodium dithionite; anaerobic
T2 construct: cDNA-derived, N-terminal 6xHis tag with GGG linker; sense cloning primer encodes tag then KCTSAV (no start Met, N-terminus probably truncated); maturation possibly incomplete

Row | Substance | Km [1] | Km [2]
1 | HYDA1 (Volvox carteri f. nagariensis) | 2760 µM | 
2 | HYDA2 (Volvox carteri f. nagariensis) |  | 2820 µM
